Patent US20140087995A1 (published 2014)
Numbered stars: 1 amine (or outer) side, 2 acyl side, 3 side chain; on linkers, the order of the positions; unused ones are H or OH. Bridge positions count the residues as written; N and C are the ends. Side chains are listed from the residue outwards. Ends that are not written are not given here. * marks the point of attachment. C20 diacid = O=C(O)CCCCCCCCCCCCCCCCCCC(=O)*; γGlu = O=C(O)[C@H](CCC(=O)[*:2])N[*:1]

T1: human amylin receptor (amylin 3(a) receptor: human calcitonin receptor with RAMP-3) (human, UniProt P30988 25-474; O60896 24-148)
T1 construct: whole, on cells; also called hAmylin-R; hAmylinR
T1 sequence (looked up) 1: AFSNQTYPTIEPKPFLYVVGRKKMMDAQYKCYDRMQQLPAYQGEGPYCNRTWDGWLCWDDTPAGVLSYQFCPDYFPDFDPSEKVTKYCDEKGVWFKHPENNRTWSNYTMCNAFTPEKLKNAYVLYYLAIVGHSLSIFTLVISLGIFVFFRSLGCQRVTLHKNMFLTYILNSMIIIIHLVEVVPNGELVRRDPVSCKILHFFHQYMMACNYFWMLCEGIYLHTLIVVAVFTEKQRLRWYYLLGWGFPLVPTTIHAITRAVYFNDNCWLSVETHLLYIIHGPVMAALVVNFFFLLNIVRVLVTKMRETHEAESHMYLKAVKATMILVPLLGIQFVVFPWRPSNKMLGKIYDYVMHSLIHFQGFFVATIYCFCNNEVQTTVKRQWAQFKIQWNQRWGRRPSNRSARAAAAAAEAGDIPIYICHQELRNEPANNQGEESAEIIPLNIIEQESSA
T1 sequence (looked up) 2: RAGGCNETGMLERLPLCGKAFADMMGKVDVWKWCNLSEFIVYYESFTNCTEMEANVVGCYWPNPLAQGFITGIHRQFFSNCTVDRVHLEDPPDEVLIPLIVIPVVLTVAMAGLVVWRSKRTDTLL


Target: T1, human amylin receptor (amylin 3(a) …)
Assay: SPA displacement of 125I-rat amylin, hAmylin 3(a) receptor membranes
In short: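 Cell membranes were prepared by homogenisation in Na-HEPES/EDTA buffer, pH 7.4, and stored at −80° C. They were then coupled to SPA beads at 35 ng/μL final and exposed to compounds in assay buffer containing CaCl2, MgCl₂, OA and Tween20. After 120 min at 25° C, plates were counted and IC₅₀ derived.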

IC50 | Binder
0.649 nM | K([γGlu-C20 diacid])CNTATCATQRLARFLRHSSPNFGAIPSSTNVGPNTY-NH2 (disulfide 2-7; N-terminus assumed; SMILES CC[C@H](C)[C@H](NC(=O)[C@H](C)NC(=O)CNC(=O)[C@H](Cc1ccccc1)NC(=O)[C@H](CC(N)=O)NC(=O)[C@@H]1CCCN1C(=O)[C@H](CO)NC(=O)[C@H](CO)NC(=O)[C@H](Cc1c[nH]cn1)NC(=O)[C@H](CCCNC(=N)N)NC(=O)[C@H](CC(C)C)NC(=O)[C@H](Cc1ccccc1)NC(=O)[C@H](CCCNC(=N)N)NC(=O)[C@H](C)NC(=O)[C@H](CC(C)C)NC(=O)[C@H](CCCNC(=N)N)NC(=O)[C@H](CCC(N)=O)NC(=O)[C@@H](NC(=O)[C@H](C)NC(=O)[C@@H]1CSSC[C@H](NC(=O)[C@@H](N)CCCCNC(=O)CC[C@H](NC(=O)CCCCCCCCCCCCCCCCCCC(=O)O)C(=O)O)C(=O)N[C@@H](CC(N)=O)C(=O)N[C@@H]([C@@H](C)O)C(=O)N[C@@H](C)C(=O)N[C@@H]([C@@H](C)O)C(=O)N1)[C@@H](C)O)C(=O)N1CCC[C@H]1C(=O)N[C@@H](CO)C(=O)N[C@@H](CO)C(=O)N[C@H](C(=O)N[C@@H](CC(N)=O)C(=O)N[C@H](C(=O)NCC(=O)N1CCC[C@H]1C(=O)N[C@@H](CC(N)=O)C(=O)N[C@H](C(=O)N[C@@H](Cc1ccc(O)cc1)C(N)=O)[C@@H](C)O)C(C)C)[C@@H](C)O, also called 65; compound 65)
0.79 nM | K([γGlu-C20 diacid])CNTATCATQRLANFLRHSSPNFGAIPSSTNVGRNTY-NH2 (disulfide 2-7; N-terminus assumed; SMILES CC[C@H](C)[C@H](NC(=O)[C@H](C)NC(=O)CNC(=O)[C@H](Cc1ccccc1)NC(=O)[C@H](CC(N)=O)NC(=O)[C@@H]1CCCN1C(=O)[C@H](CO)NC(=O)[C@H](CO)NC(=O)[C@H](Cc1c[nH]cn1)NC(=O)[C@H](CCCNC(=N)N)NC(=O)[C@H](CC(C)C)NC(=O)[C@H](Cc1ccccc1)NC(=O)[C@H](CC(N)=O)NC(=O)[C@H](C)NC(=O)[C@H](CC(C)C)NC(=O)[C@H](CCCNC(=N)N)NC(=O)[C@H](CCC(N)=O)NC(=O)[C@@H](NC(=O)[C@H](C)NC(=O)[C@@H]1CSSC[C@H](NC(=O)[C@@H](N)CCCCNC(=O)CC[C@H](NC(=O)CCCCCCCCCCCCCCCCCCC(=O)O)C(=O)O)C(=O)N[C@@H](CC(N)=O)C(=O)N[C@@H]([C@@H](C)O)C(=O)N[C@@H](C)C(=O)N[C@@H]([C@@H](C)O)C(=O)N1)[C@@H](C)O)C(=O)N1CCC[C@H]1C(=O)N[C@@H](CO)C(=O)N[C@@H](CO)C(=O)N[C@H](C(=O)N[C@@H](CC(N)=O)C(=O)N[C@H](C(=O)NCC(=O)N[C@@H](CCCNC(=N)N)C(=O)N[C@@H](CC(N)=O)C(=O)N[C@H](C(=O)N[C@@H](Cc1ccc(O)cc1)C(N)=O)[C@@H](C)O)C(C)C)[C@@H](C)O, also called 79; compound 79) [N^ε1-[(4S)-4-carboxy-4-(19-carboxynonadecanoylamino)butanoyl]-[Arg17,Pro21,Pro27,Arg34]-h-amylin]
0.939 nM | K([γGlu-C20 diacid])CNTATCATQRLARFLRHSSPNFGAIPSSTNVGSNTY-NH2 (disulfide 2-7; N-terminus assumed; SMILES CC[C@H](C)[C@H](NC(=O)[C@H](C)NC(=O)CNC(=O)[C@H](Cc1ccccc1)NC(=O)[C@H](CC(N)=O)NC(=O)[C@@H]1CCCN1C(=O)[C@H](CO)NC(=O)[C@H](CO)NC(=O)[C@H](Cc1c[nH]cn1)NC(=O)[C@H](CCCNC(=N)N)NC(=O)[C@H](CC(C)C)NC(=O)[C@H](Cc1ccccc1)NC(=O)[C@H](CCCNC(=N)N)NC(=O)[C@H](C)NC(=O)[C@H](CC(C)C)NC(=O)[C@H](CCCNC(=N)N)NC(=O)[C@H](CCC(N)=O)NC(=O)[C@@H](NC(=O)[C@H](C)NC(=O)[C@@H]1CSSC[C@H](NC(=O)[C@@H](N)CCCCNC(=O)CC[C@H](NC(=O)CCCCCCCCCCCCCCCCCCC(=O)O)C(=O)O)C(=O)N[C@@H](CC(N)=O)C(=O)N[C@@H]([C@@H](C)O)C(=O)N[C@@H](C)C(=O)N[C@@H]([C@@H](C)O)C(=O)N1)[C@@H](C)O)C(=O)N1CCC[C@H]1C(=O)N[C@@H](CO)C(=O)N[C@@H](CO)C(=O)N[C@H](C(=O)N[C@@H](CC(N)=O)C(=O)N[C@H](C(=O)NCC(=O)N[C@@H](CO)C(=O)N[C@@H](CC(N)=O)C(=O)N[C@H](C(=O)N[C@@H](Cc1ccc(O)cc1)C(N)=O)[C@@H](C)O)C(C)C)[C@@H](C)O, also called 83; compound 83) [N^ε1-[(4S)-4-carboxy-4-(19-carboxynonadecanoylamino)butanoyl]-[Arg14,Arg17,Pro21,Pro27]-h-amylin]
0.428 nM | K([γGlu-C20 diacid])CNTATCATQRLANFLRHSSPNFGAIPSSTNVGHNTY-NH2 (disulfide 2-7; N-terminus assumed; SMILES CC[C@H](C)[C@H](NC(=O)[C@H](C)NC(=O)CNC(=O)[C@H](Cc1ccccc1)NC(=O)[C@H](CC(N)=O)NC(=O)[C@@H]1CCCN1C(=O)[C@H](CO)NC(=O)[C@H](CO)NC(=O)[C@H](Cc1c[nH]cn1)NC(=O)[C@H](CCCNC(=N)N)NC(=O)[C@H](CC(C)C)NC(=O)[C@H](Cc1ccccc1)NC(=O)[C@H](CC(N)=O)NC(=O)[C@H](C)NC(=O)[C@H](CC(C)C)NC(=O)[C@H](CCCNC(=N)N)NC(=O)[C@H](CCC(N)=O)NC(=O)[C@@H](NC(=O)[C@H](C)NC(=O)[C@@H]1CSSC[C@H](NC(=O)[C@@H](N)CCCCNC(=O)CC[C@H](NC(=O)CCCCCCCCCCCCCCCCCCC(=O)O)C(=O)O)C(=O)N[C@@H](CC(N)=O)C(=O)N[C@@H]([C@@H](C)O)C(=O)N[C@@H](C)C(=O)N[C@@H]([C@@H](C)O)C(=O)N1)[C@@H](C)O)C(=O)N1CCC[C@H]1C(=O)N[C@@H](CO)C(=O)N[C@@H](CO)C(=O)N[C@H](C(=O)N[C@@H](CC(N)=O)C(=O)N[C@H](C(=O)NCC(=O)N[C@@H](Cc1c[nH]cn1)C(=O)N[C@@H](CC(N)=O)C(=O)N[C@H](C(=O)N[C@@H](Cc1ccc(O)cc1)C(N)=O)[C@@H](C)O)C(C)C)[C@@H](C)O, also called 77; compound 77) [N^ε1-[(4S)-4-carboxy-4-(19-carboxynonadecanoylamino)butanoyl]-[Arg17,Pro21,Pro27,His34]-h-amylin]
0.837 nM | K([γGlu-C20 diacid])CNTATCATQRLANFLRHSSPNFGAIPSSTNVGSETY-NH2 (disulfide 2-7; N-terminus assumed; SMILES CC[C@H](C)[C@H](NC(=O)[C@H](C)NC(=O)CNC(=O)[C@H](Cc1ccccc1)NC(=O)[C@H](CC(N)=O)NC(=O)[C@@H]1CCCN1C(=O)[C@H](CO)NC(=O)[C@H](CO)NC(=O)[C@H](Cc1c[nH]cn1)NC(=O)[C@H](CCCNC(=N)N)NC(=O)[C@H](CC(C)C)NC(=O)[C@H](Cc1ccccc1)NC(=O)[C@H](CC(N)=O)NC(=O)[C@H](C)NC(=O)[C@H](CC(C)C)NC(=O)[C@H](CCCNC(=N)N)NC(=O)[C@H](CCC(N)=O)NC(=O)[C@@H](NC(=O)[C@H](C)NC(=O)[C@@H]1CSSC[C@H](NC(=O)[C@@H](N)CCCCNC(=O)CC[C@H](NC(=O)CCCCCCCCCCCCCCCCCCC(=O)O)C(=O)O)C(=O)N[C@@H](CC(N)=O)C(=O)N[C@@H]([C@@H](C)O)C(=O)N[C@@H](C)C(=O)N[C@@H]([C@@H](C)O)C(=O)N1)[C@@H](C)O)C(=O)N1CCC[C@H]1C(=O)N[C@@H](CO)C(=O)N[C@@H](CO)C(=O)N[C@H](C(=O)N[C@@H](CC(N)=O)C(=O)N[C@H](C(=O)NCC(=O)N[C@@H](CO)C(=O)N[C@@H](CCC(=O)O)C(=O)N[C@H](C(=O)N[C@@H](Cc1ccc(O)cc1)C(N)=O)[C@@H](C)O)C(C)C)[C@@H](C)O, also called 27; compound 27) [N^ε1-[(4S)-4-carboxy-4-(19-carboxynonadecanoylamino)butanoyl]-[Arg17,Pro21,Pro27,Glu35]-h-amylin]
